Measurements reported in patent US20240043504A1 (published 2024).
Where a chain is given by its changes, count along the chain named.

B1: mAb10982 (antibody, V domains shown)
VH: EVQLVESGGGLVQPGGSLRLSCAASGLTVSSNYMSWVRQAPGKGLEWVSVIYSGGTTYYADSVKGRFTISRHNSKNTLSLQMNSLRAEDTAVYYCARGEGANYYGMDVWGQGTTVTVSS
VL: QSVLTQPPSVSGAPGQRVTISCTGSSSNIGTGYDVHWYQQLPGTAPKLLIYGNSNRPSGVPDRFSGSKSGTSASLAITGLQAEDEADYYCQSYDSSLSGYVVFGGGTKLTVLG
B2: mAb10986 (antibody, V domains shown)
VH: EVQLVESGGGLVQPGGSLRLSCAASEFTVSSNYMSWVRQAPGKGLEWVSVIYSGGSTFYADSVKGRFTISRDNSKNTLYLQMNSLRAEDTAVYYCARALPYGDLHFDYWGQGTLVTVSS
VL: B1 VL with S54T, G99D, Y100S, V101Y, G105T, L109V
B3: mAb10937 (antibody, V domains shown)
VH: QITLKESGPTLVKPTQTLTLTCTFSGFSLSTNVVGVGWIRQPPGKALEWLALIYWNDDKRYSPSLKSRLTITKDTSKNQVVLTMTNMDPVDTATYYCAHGPTGDYFDYWGQGTLVTVSS
VL: not shown
B4: mAb10971 (antibody, V domains shown)
VH: EVQLVESGGGLIQPGGSLRLSCAASGVTVSSNYMSWVRQAPGKGLEWVSVIYSGGSTFYSDSVKGRFSISRDNSKNTLYLQMNSLRAEDTAVYYCARDLYYYGMDVWGQGTTVTVSS
VL: DIQLTQSPSFLSASVGDRVTITCRASQGISTYLAWYQQKPGKAPKLLIYAASTLQSGVPSRFSGSGSGTEFTLTISSLQPEDFATYYCQQLDSYPGLTFGGGTKVEIKR
B5: mAb10939 (antibody, V domains shown)
VH: EVQLVESGGGLVQPGGSLRLSCAASGLTVSSNYMNWVRQVPGKGLEWVSVIYSGGSKFYVDSVKGRFTISRHNSKNTLYLQMNSLRPEDTAVYYCTRDAQYYGMDVWGQGTTVTVSS
VL: DIQMTQSPSSLSASVGDRVTITCRASQSISTYLHWYQQKPGEAPKLLIYAASSLQSGVPSRFSGSGSGTDFTLTISSLQPEDFATYYCQQSYSTPPEIFGQGTKLEIKR
B6: mAb10930 (antibody, V domains shown)
VH: EVQLVESGGGLVQPGRSLRLSCAASGFTFDDYAMYWVRQAPGKGLEWVSGISWNSGSIGYADSVKGRFTISRDNAKNSLYLQMNSLRAADTALYYCAKDKDWNSRGYYYYGMDVWGQGTTVTVSS
VL: not shown
B7: mAb10921 (antibody, V domains shown)
VH: EVQLVESGGGLVQPGGSLRLSCAASGITVSSNYMSWVRQAPGKGLEWVSVIYSGGSTFYADSVKGRFTISRHNSKNTLYLQMNSLRAEDTAVYYCARERNFDAFDIWGQGTMVTVSS
VL: DIQMTQSPSSVSASVGDRVTITCRASQGISSWLAWYQQKPGKAPKLLIYAASSLQSGVPSRFSGSGSGTDFTLTISSLQPEDFATYYCQQANSFPLFTFGPGTKVDIKR
B8: mAb10989 (antibody, V domains shown)
VH: QVQLVQSGAEVKKPGASVKVSCKASGYIFTGYYMHWVRQAPGQGLEWMGWINPNSGGANYAQKFQGRVTLTRDTSITTVYMELSRLRFDDTAVYYCARGSRYDWNQNNWFDPWGQGTLVTVSS
VL: QSALTQPASVSGSPGQSITISCTGTSSDVGTYNYVSWYQQHPGKAPKLMIFDVSNRPSGVSDRFSGSKSGNTASLTISGLQAEDEADYYCSSFTTSSTVVFGGGTKLTVLG
B9: mAb10964 (antibody, V domains shown)
VH: QVQLQESGPGLVKPSETLSLTCTVSGGSINNYYWIWIRQPPGKGLEWIGYIYHSGSTNYNPSLKSRVTISVDTSKNQFSLKVSSVTAADTAVYYCANMVRGVYEDDYWGQGTLVTVSS
VL: DIQMTQSPSSLSASVGDRVTITCRASQSISNYLNWYQQKPGKAPKLLIFAASSLRSGVPSRFSGSGSGTDFTLTISSLHPEDFATYYCQQNYNTPLTFGPGTKVDIKR

Legend:
[1] = molecular target: SARS-CoV-2 Spike Protein (S1 Subunit, His Tag) (Sino 40591-V08H) (SARS-CoV-2, UniProt P0DTC2 16-685); assay: Luminex, supernatant
[2] = molecular target: SARS-CoV-2 Spike Protein (S1 Subunit, Fc Tag) (Sino 40591-V02H) (SARS-CoV-2, UniProt P0DTC2 16-685); assay: Luminex, supernatant

Row | Binder | MFI [1] [MFI] | MFI [2] [MFI]
1 | B1 | 14000 | 10800
2 | B2 | 19100 | 16000
3 | B3 | 26400 | 19600
4 | B4 | 21600 | 17000
5 | B5 | 23900 | 18200
6 | B6 | 21200 | 16500
7 | B7 | 12200 | 8960
8 | B8 | 14200 | 12300
9 | B9 | 24200 | 18600
